We go through two substances from US7854918B2, “Composition for medical use having improved water-solubility of peptide and metal-labeling efficiency and preparation for medical use comprising metal-labeled peptide” (Nihon Medi-Physics Co., Ltd., priority 2004, dated 2010).

Data set [1] is described as follows: External observation of peptide sample solutions (presence or absence of white turbidity). The data set is classed as physicochemical. As for the experimental part:
(§1) Peptide 1, Peptide 2, and Peptide 3 (100 μg each) were separately added to 410 mM arginine solutions (pH 11) to adjust each total amount to 700 μL. Molarities in these solutions are 94 μM (Peptide 1), 99 μM (Peptide 2), and 161 μM (Peptide 3). […] Then, 200 μL each of the sample solutions was filtered with a filter Millex (registered trademark)-GV (trade name, manufactured by Nihon Millipore) with a pore size of 0.22 μm. The sample solutions before filtration and the sample solutions after filtration were respectively analyzed by reverse-phase HPLC. Peak area percentages were determined from the peak area values of the peptides before and after filtration and used as elution rates. HPLC analytical conditions are shown below.
(§2) For a comparative example, Peptide 1, Peptide 2, and Peptide 3 were separately dissolved in each of water and dimethylsulfoxide (DMSO) to prepare samples having a peptide concentration of 94 μM, 99 μM, or 161 μM, which were studied in the same way as above.
(§3) Arginine, lysine, and histidine were separately dissolved in water to prepare 410 mM arginine solution, 489 mM lysine solution, and 90 mM histidine solution. An aqueous solution of sodium hydroxide and hydrochloric acid were added to these solutions to adjust the pH of the aqueous solutions of lysine and histidine to 8, 9, 10, and 11, and the pH of the aqueous solution of arginine to 8, 8.5, 9, 9.5, 10, and 11. Subsequently, Peptide 1 was added to these aqueous solutions to prepare 94 μM Peptide 1 solutions. […] Then, 200 μL each of the sample solutions was filtered with a filter Millex (registered trademark)-GV (trade name, manufactured by Nihon Millipore) with a pore size of 0.22 μm. The sample solutions before filtration and the sample solutions after filtration were respectively analyzed by reverse-phase HPLC. Peak area percentages were determined from the peak area values of Peptide 1 before and after filtration and used as elution rates. HPLC analytical conditions were the same as the conditions described in Example 1.
(§4) Imidazole was dissolved in water to prepare 1 mM imidazole solution. pH was adjusted to 8, 8.5, and 9 by adding an appropriate amount of hydrochloric acid to this solution. Subsequently, Peptide 1 was added to these imidazole solutions to prepare 94 μM Peptide 1 solutions. […] Then, 200 μL each of the sample solutions was filtered with a filter Millex (registered trademark)-GV (trade name, manufactured by Nihon Millipore) with a pore size of 0.22 μm. The sample solutions before filtration and the sample solutions after filtration were respectively analyzed by reverse-phase HPLC. Peak area percentages were determined from the peak area values of Peptide 1 before and after filtration and used as elution rates. HPLC analytical conditions were the same as the conditions described in Example 1.
(§5) Disodium hydrogen phosphate, sodium dihydrogen citrate, sodium ascorbate, and imidazole were separately dissolved in water to prepare their respective aqueous solutions with pH 9 at concentrations described in Table 4. pH adjustment was performed with hydrochloric acid and an aqueous solution of sodium hydroxide. The above-described aqueous solutions were separately added to the weighed Peptide 1 to prepare 94 μM Peptide 1 solutions. […] These Peptide 1 solutions were compared with the Peptide 1 sample solutions using the respective aqueous solutions of disodium hydrogen phosphate, sodium dihydrogen citrate, and sodium ascorbate used as comparative controls. Subsequently, 200 μL each of the sample solutions was filtered with a filter Millex (registered trademark)-GV (trade name, manufactured by Nihon Millipore) with a pore size of 0.22 μm. The sample solutions before filtration and the sample solutions after filtration were respectively analyzed by reverse-phase HPLC. […]

Data set [2] is described as follows: Elution rate: reverse-phase HPLC peak area of the peptide after vs before 0.22 μm filtration. The data set is classed as physicochemical. Particulars: peptide 94/99/161 μM. The protocol: as §1, §2
Column: Cosmosil 5C18-AR-300 (Manufactured by Nacalai Tesque, 4.6×150 mm)
Detection: ultraviolet and visible spectrophotometer (detection wavelength: 220 nm)
HPLC system: Alliance (manufactured by Waters, Japan)
Eluant A: 0.1% trifluoroacetic acid (hereinafter, TFA)/purified water
Eluant B: 0.1% TFA/acetonitrile
Concentration gradient: 0 min (Eluant B 20%)→25 min (Eluant B 70%)
as §3, §4
as §5, with “controls.” for “controls. Subsequently, 200 μL each of the sample solutions was filtered with a filter Millex (registered trademark)-GV (trade name, manufactured by Nihon Millipore) with a pore size of 0.22 μm. The sample solutions before filtration and the sample solutions after filtration were respectively analyzed by reverse-phase HPLC.”

[3] abbreviates: 410 mM arginine solution, pH 11, peptide 94/99/161 μM.
Setting [4] is: solvent DMSO, peptide 94/99/161 μM.
The mark [5] stands for this setting: solvent water, peptide 94 μM (Peptide 1), 99 μM (Peptide 2), 161 μM (Peptide 3).
Where [6] appears, read: 410 mM arginine solution, pH 11.

Square brackets hold non-standard residues; d marks the D form. Ends that are not written are not given here. * marks the point of attachment. Nle = CCCC[C@H](N)C(=O)O; For = O=C*

With “formyl-Met-Leu-Phe-Lys-ε(-Gly-Asp-Ac—S-Bzl) (For-MLFKGD; not fully specified (C-terminus); printed as formyl-Met-Leu-Phe-Lys-ε(-Gly-Asp-Ac—S-Bzl); also: Gly-Asp attached through Lys epsilon-amino (branch)) [Peptide 3]”, the Appearance result in data set [1] (setting [3]) was “Colorless,”; in data set [1] (setting [4]), “Colorless,”; in data set [1] (setting [5]) it was “Whitish”. For the same substance, the Elution rate was found to be 101.3% in data set [2] (setting [6]) and 108.5% in data set [2] (solvent DMSO).

With “formyl-Nle-Leu-Phe-Nle-Tyr-Lys(NH2)-ε(-Ser-D-Arg-DTPA*) (For-[Nle]LF[Nle]YKS[dR]; not fully specified (C-terminus); also: Lys(NH2): Lys α-carboxamide, Ser-D-Arg branch on Lys ε-amine, DTPA* at end of Ser-D-Arg branch) [Peptide 2]”, the Appearance result in data set [1] (setting [3]) is “Colorless,”; in data set [1] (setting [4]) it was “Colorless,”; in data set [1] (setting [5]), “Whitish”. The values for the Elution rate in data set [2] (setting [6]) and in data set [2] (solvent DMSO) were 102.8% and 100.9%, respectively.
